Paper PMC2731163, “HoxA-11 and FOXO1A Cooperate to Regulate Decidual Prolactin Expression: Towards Inferring the Core Transcriptional Regulators of Decidual Genes” (PLoS ONE, 2009)

Target: N-terminal Flag tagged human FOXO1A (human, UniProt Q12778 1-655)
Experiment: cell-based or functional assay

N-terminal Flag tagged human FOXO1A, sequence (Q12778 whole entry): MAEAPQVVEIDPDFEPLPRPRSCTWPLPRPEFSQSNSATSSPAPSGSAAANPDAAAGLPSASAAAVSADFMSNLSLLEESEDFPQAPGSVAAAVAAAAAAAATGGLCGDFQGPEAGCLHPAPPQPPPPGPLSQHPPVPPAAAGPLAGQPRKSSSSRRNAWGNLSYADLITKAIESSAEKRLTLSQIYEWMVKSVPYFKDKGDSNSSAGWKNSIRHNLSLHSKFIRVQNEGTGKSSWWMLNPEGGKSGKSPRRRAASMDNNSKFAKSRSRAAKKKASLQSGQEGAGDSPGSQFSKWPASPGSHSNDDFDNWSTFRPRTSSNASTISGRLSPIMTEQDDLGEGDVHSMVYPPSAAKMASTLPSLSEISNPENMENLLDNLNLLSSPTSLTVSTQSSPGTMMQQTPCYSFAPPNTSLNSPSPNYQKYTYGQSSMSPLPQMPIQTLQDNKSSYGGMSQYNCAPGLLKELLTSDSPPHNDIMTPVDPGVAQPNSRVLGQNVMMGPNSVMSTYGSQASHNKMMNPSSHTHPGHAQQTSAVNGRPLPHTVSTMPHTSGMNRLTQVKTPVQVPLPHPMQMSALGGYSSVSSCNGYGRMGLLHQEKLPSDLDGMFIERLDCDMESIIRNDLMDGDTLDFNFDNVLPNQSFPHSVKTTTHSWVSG

B1: HoxA11-V5/His fusion protein (natural protein)
chain: not shown
With B1 the “luciferase expression from the dPRL-332/luc3 decidual PRL enhancer reporter in HeLa cells cotransfected with HoxA-11 and FOXO1A, fold change relative to empty expression vector” value was greater than 3 fold.
